Laboratory results published in US5985836A, “Alpha-1 proteinase inhibitor binding peptides” (Bayer Corporation, priority 1998, dated 1999).
Ends that are not written are not given here.

Assays:
[1] = system: Immunoglobulin G (IgG); assay: Purification from Effluent II+III, IgG mass balance; assay type: binding, human; conditions: 1 ml Eff. II+III, 4° C.
Description: (§1) Sequences 1-11 and 15 were assayed with Effluent II+III (Eff. II+III). Eff. II+III is a process intermediate in the Cohn plasma fractionation process. The feed stream contains 20% (by volume) ethanol, 20-25 mg/ml hSA and approximately 1 mg/ml AlPI. The stream also contains other proteins including anti-thrombin III (AT3), immunoglobin G (IgG), immunoglobin A (IgA), apolipoprotein alpha-1 (Apo A-1), transferrin (Trf), haptoglobin (Hpt), and alpha-1 acid glycoprotein (AAG) at concentrations ranging from 0.1-1 mg/ml.
(§2) The columns were assayed using the same technique as the hSA+AlPI experiments, allowing for a 10 minute residence time followed by a constant flow rate of 865 μl/min with step elutions of 1M NaCl, 3M NaCl, and 2% acetic acid. All experiments were conducted at 4° C. The mass balances for the injection of 1 ml Eff. […] The AlPI was enriched from 3% of the total protein in the feed to upwards of 50% in the acid eluate.

[2] = molecular target: T1, A1PI (Homo sapiens, UniProt P01009); assay: Purification of A1PI from Effluent II+III on peptide column, A1PI mass balance; assay type: binding; conditions: A1PI, 1 ml Eff. II+III, 4° C.
T1 construct: Human plasma is currently the only approved source of therapeutic AlPI
Description: as §1, §2

[3] = molecular target: T1, A1PI; assay: A1PI binding on peptide-resin column, injection of 1 mg A1PI in equilibration buffer; conditions: 1 mg A1PI in equilibration buffer
In short: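 Percent of total eluted A1PI per fraction (flowthrough, NaCl steps, 2% acetic acid) determined by A280 integration or immunonephelometry. Columns of peptide-derivatized A-Totda-Toyopearl resin (0.1 mmole/g) received 1 mg A1PI at 4 °C or 20 °C, flow 865 or 523 μl/min.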

[4] = molecular target: T2, apolipoprotein alpha-1 (Apo A-1) (Homo sapiens, UniProt P02647); assay: Purification from Effluent II+III, Apo A-1 mass balance; assay type: binding; conditions: 1 ml Eff. II+III, 4° C.
T2 construct: Eff; II+III is a process intermediate in the Cohn plasma fractionation process; tissue Bayer Corporation (Clayton, N.C.); host or cells: plasma fraction: Cohn Effluent II+III
Description: as §1, §2

[5] = system: Immunoglobulin A (IgA); assay: Purification from Effluent II+III, IgA mass balance; assay type: binding, human; conditions: 1 ml Eff. II+III, 4° C.
Description: as §1, §2

[6] = molecular target: T1, A1PI; assay: A1PI purification from 5 mg hSA + 1 mg A1PI on peptide column, A1PI mass balance; assay type: binding; conditions: for Mass AlPI Eluted in Acid Eluate: nephelometry; for Percent Eluted by Fraction, 1M NaCl / Percent Eluted by Fraction, 2% Ac. Acid / Percent Eluted by Fraction, 3M NaCl / Percent Eluted by Fraction, Flow: relative to total eluted
Description: Confirmatory binding assays were performed in a column chromatographic format on a microbore HPLC using individual peptide sequences synthesized directly onto the Toyopearl 650 M Chelate resin which had been modified with Totda followed by an alanine residue (A-Totda-Toyopearl), at a final substitution density of 0.1 mmole/g resin. The resin was packed into 0.4×5 cm columns (Thomson, Springfield, Va.) and tested on the Michrom HPLC system (Michrom BioResources, Auburn, Calif.). The elution program for all trials utilized the following method. The column was pre-equilibrated with equilibration buffer (as above). 1 ml of sample was injected and allowed sufficient time to flowthrough the column using equilibration buffer. The column was then washed with step elutions of 1M NaCl and 3M NaCl in equilibration buffer. The column was exposed to equilibration buffer with 0.1M NaCl. Any remaining protein was eluted with elution buffer (2% by volume glacial acetic acid in water).
A Gilson FC204 fraction collector at the HPLC outlet collected individual eluates for further analysis. Fractions collected from the 2% acetic acid eluates were neutralized with 2M Tris, pH 10.5 to bring the pH to neutrality. The protein samples were reconstituted in equilibration buffer unless otherwise stated. The samples were analyzed by the integration of the absorbance at 280 nm or by immunonephelometry. The specific method of determination is presented for each figure.
Columns were assayed with a mixture of 5 mg human serum albumin (hSA)+1 mg AlPI at 4° C. (Table 4, Seq. ID 1-11, 15, 17) and 20° C. (Table 5, Seq. ID 1-10, 13, 15, 17). The chromatography method was modified to provide for a 10 minute residence time of sample in the column by decreasing the flow to 17 μl/min (10 cm/hr) upon injection. Following the incubation, the flow was set at 865 μl/min (413 cm/hr) for the step elutions of 1M NaCl, 3M NaCl, and 2% acetic acid. The mass balances presented are based upon immunonephelometry. The Percent Eluted value is protein-specific and based on the amount of the protein eluted in a […]

[7] = * as in Tables 4, 5 (below detection limit)
[8] = A1PI, 5 mg hSA + 1 mg A1PI, 4° C., * Below detection limit
[9] = A1PI, 5 mg hSA + 1 mg A1PI, 4° C.
[10] = A1PI, 5 mg hSA + 1 mg A1PI, 20° C., * Below detection limit
[11] = A1PI, 5 mg hSA + 1 mg A1PI, 20° C.

T2 sequence (P02647 19-267): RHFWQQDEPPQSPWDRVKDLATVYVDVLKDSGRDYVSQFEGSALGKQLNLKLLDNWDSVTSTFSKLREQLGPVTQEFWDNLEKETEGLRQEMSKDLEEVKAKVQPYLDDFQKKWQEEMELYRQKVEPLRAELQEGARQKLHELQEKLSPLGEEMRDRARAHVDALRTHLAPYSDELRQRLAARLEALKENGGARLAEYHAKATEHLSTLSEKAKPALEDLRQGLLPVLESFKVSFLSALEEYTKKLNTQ
T1 sequence (P01009 25-418): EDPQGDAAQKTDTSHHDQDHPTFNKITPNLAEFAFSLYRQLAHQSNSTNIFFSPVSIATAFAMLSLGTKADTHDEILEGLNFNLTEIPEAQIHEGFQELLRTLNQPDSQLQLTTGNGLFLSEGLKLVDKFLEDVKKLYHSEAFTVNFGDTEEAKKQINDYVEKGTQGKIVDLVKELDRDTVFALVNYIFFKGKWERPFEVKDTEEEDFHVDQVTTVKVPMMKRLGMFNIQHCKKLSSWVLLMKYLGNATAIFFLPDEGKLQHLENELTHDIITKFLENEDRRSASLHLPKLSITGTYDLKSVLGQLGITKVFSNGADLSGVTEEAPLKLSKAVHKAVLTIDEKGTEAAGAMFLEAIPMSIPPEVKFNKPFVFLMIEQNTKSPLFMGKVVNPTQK

RLWRYG
Percent Eluted by Fraction, 1M NaCl [1]: 0%
Percent Eluted by Fraction, 2% Acetic Acid [1]: 0%
Percent Eluted by Fraction, 3M NaCl [1]: 0%
Percent Eluted by Fraction, Flow [1]: 100%
Mass Protein per Eluate Fraction, Flow [1, 7]: 0.27 mg
Percent Eluted by Fraction, 1M NaCl [2]: 22%
Percent Eluted by Fraction, 2% Acetic Acid [2]: 14%
Percent Eluted by Fraction, 3M NaCl [2]: 0%
Percent Eluted by Fraction, Flow [2]: 64%
Mass Protein per Eluate Fraction, 1M NaCl [2, 7]: 0.20 mg
Mass Protein per Eluate Fraction, 2% Acetic Acid [2, 7]: 0.13 mg
Mass Protein per Eluate Fraction, Flow [2, 7]: 0.59 mg
Percent A1PI Eluted by Fraction Based on Absorbance at 280 nm, 1M NaCl ([3]; 4° C.): 88%
Percent A1PI Eluted by Fraction Based on Absorbance at 280 nm, 2% Acetic Acid ([3]; 4° C.): 12%
Percent A1PI Eluted by Fraction Based on Absorbance at 280 nm, Flowthrough ([3]; 4° C.): 0%
Percent A1PI Eluted by Fraction, 1M NaCl ([3]; 20° C.): 88%
Percent A1PI Eluted by Fraction, 2% Acetic Acid ([3]; 20° C.): 12%
Percent A1PI Eluted by Fraction, Flowthrough ([3]; 20° C.): 0%
Percent Eluted by Fraction, 1M NaCl [4]: 0%
Percent Eluted by Fraction, 2% Acetic Acid [4]: 100%
Percent Eluted by Fraction, 3M NaCl [4]: 0%
Percent Eluted by Fraction, Flow [4]: 0%
Mass Protein per Eluate Fraction, 2% Acetic Acid [4, 7]: 0.35 mg
Percent Eluted by Fraction, 1M NaCl [5]: 0%
Percent Eluted by Fraction, 2% Acetic Acid [5]: 31%
Percent Eluted by Fraction, 3M NaCl [5]: 0%
Percent Eluted by Fraction, Flow [5]: 69%
Mass Protein per Eluate Fraction, 2% Acetic Acid [5, 7]: 0.09 mg
Mass Protein per Eluate Fraction, Flow [5, 7]: 0.19 mg
Mass AlPI Eluted in Acid Eluate ([6]; 250 μg AlPI injected with 5 mg hSA, 20° C.): 0.07 mg
Mass AlPI Eluted in Acid Eluate ([6]; 500 μg AlPI injected with 5 mg hSA, 20° C.): 0.15 mg
Mass AlPI Eluted in Acid Eluate ([6]; 1000 μg AlPI injected with 5 mg hSA, 20° C.): 0.39 mg
Mass Protein per Eluate Fraction, 1M NaCl [6, 8]: 0.50 mg
Mass Protein per Eluate Fraction, 2% Ac. Acid [6, 8]: 0.11 mg
Mass Protein per Eluate Fraction, Flow [6, 8]: 0.01 mg
Percent Eluted by Fraction, 1M NaCl [6, 9]: 80%
Percent Eluted by Fraction, 2% Ac. Acid [6, 9]: 18%
Percent Eluted by Fraction, 3M NaCl [6, 9]: 0%
Percent Eluted by Fraction, Flow [6, 9]: 2%
Mass Protein per Eluate Fraction, 1M NaCl [6, 10]: 0.42 mg
Mass Protein per Eluate Fraction, 2% Ac. Acid [6, 10]: 0.45 mg
Mass Protein per Eluate Fraction, 3M NaCl [6, 10]: 0.00 mg
Percent Eluted by Fraction, 1M NaCl [6, 11]: 48%
Percent Eluted by Fraction, 2% Ac. Acid [6, 11]: 52%
Percent Eluted by Fraction, 3M NaCl [6, 11]: 0%
Percent Eluted by Fraction, Flow [6, 11]: 0%
